Laboratory results from paper PMC6662825, “The MTR4 helicase recruits nuclear adaptors of the human RNA exosome using distinct arch-interacting motifs” (Nature Communications, 2019).
Changes are numbered by the printed parent chain. Names may count otherwise.

T1: GST-MTR4-∆N (human, UniProt P42285 75-1042)
T1 construct: Tag is cleavable with 3C protease; kept for the GST pull-downs; also called GST-tagged MTR4∆N; source: E. coli BL21 star (DE3), purified (Ni-NTA, heparin, SEC); not shown: 6xHis-GST, N-terminal, kept
T1 sequence (looked up): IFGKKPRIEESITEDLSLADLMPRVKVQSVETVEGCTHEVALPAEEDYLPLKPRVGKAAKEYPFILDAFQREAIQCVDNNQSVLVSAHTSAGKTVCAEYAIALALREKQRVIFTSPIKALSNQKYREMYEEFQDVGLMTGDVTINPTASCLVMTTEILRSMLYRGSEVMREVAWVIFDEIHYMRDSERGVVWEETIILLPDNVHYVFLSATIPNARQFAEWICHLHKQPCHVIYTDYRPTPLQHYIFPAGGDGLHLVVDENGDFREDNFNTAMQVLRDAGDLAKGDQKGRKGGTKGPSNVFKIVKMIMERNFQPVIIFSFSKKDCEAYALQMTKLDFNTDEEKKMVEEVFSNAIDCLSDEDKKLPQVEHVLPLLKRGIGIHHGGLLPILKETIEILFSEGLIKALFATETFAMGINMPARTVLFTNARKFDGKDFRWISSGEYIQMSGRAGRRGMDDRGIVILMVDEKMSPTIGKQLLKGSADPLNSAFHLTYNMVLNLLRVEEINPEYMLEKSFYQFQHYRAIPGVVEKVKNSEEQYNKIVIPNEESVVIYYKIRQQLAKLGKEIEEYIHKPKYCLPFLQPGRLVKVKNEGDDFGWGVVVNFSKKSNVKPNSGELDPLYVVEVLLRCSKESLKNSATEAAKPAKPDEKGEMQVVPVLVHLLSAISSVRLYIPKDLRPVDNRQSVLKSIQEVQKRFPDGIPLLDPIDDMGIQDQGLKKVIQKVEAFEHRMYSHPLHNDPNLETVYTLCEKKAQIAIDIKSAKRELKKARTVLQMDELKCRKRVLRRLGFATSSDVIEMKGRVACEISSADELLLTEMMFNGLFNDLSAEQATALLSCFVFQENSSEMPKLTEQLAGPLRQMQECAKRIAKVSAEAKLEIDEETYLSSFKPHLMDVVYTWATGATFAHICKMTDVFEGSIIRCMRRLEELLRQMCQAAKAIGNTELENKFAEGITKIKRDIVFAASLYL

T2: MTR4-KOW (human, UniProt P42285 645-787)
T2 construct: human MTR4 KOW domain, residues 645–787; Named without GST in MST, NMR and ITC; the methods say the His-GST tag was cleaved with 3C protease 'when appropriate', so it was probably removed; Isotope-labelled for NMR; also called unlabeled MTR4 KOW; 15N-labelled MTR4-KOW; source: E. coli BL21 star (DE3), purified (Ni-NTA, heparin, SEC); minimal medium with 15N/13C for NMR
T2 sequence (looked up): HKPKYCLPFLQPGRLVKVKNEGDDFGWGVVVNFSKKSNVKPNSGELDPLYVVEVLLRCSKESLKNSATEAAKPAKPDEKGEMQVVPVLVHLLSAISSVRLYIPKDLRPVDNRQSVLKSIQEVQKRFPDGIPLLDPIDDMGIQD

T3: GST-MTR4∆N R743E (human, UniProt P42285 75-1042, R743E)
T3 construct: also called R743E mutant; source: E. coli BL21 star (DE3), purified (Ni-NTA, heparin, SEC); not shown: 6xHis-GST, N-terminal, kept
T3 sequence (looked up): T1 sequence (looked up) with R669E

B1: NVL^167–216 D176A (domain or fragment, human, UniProt O15381 167-216, looked up)
chain: KDSEGGWFIAKTPSVKKDSFFLDLSCEKSNPKKPITEIQDSKDSSLLESD
notes: The methods give Trx-NVL constructs for the NVL pull-downs, so the Trx tag was probably kept; also called D176A mutant; source: E. coli BL21 star (DE3), purified (Ni-NTA, SEC)
B2: Trx-NVL^167–216 F186A D189R (domain or fragment, human, UniProt O15381 167-216, looked up)
chain: B1 chain with A10D, F20A, D23R
notes: also called F186A and D189R mutations in the Nop53-like stretch; source: E. coli BL21 star (DE3), purified (Ni-NTA, SEC); not shown: 6xHis-Trx, N-terminal, kept
B3: Trx-NVL^1–266 (domain or fragment, human, UniProt O15381 1-266, looked up)
chain: MKPRPAGFVDNKLKQRVIQYLTSNKCGKYVDIGVLASDLQRVYSIDYGRRKRNAFRIQVEKVFSIISSEKELKNLTELEDEHLAKRARQGEEDNEYTESYSDDDSSMEDYPDPQSANHMNSSLLSLYRKGNPDSVSNTPEMEQRETTSSTPRISSKTGSIPLKTPAKDSEGGWFIDKTPSVKKDSFFLDLSCEKSNPKKPITEIQDSKDSSLLESDMKRKGKLKNKGSKRKKEDLQEVDGEIEAVLQKKAKARGLEFQISNVKFED
notes: also called N-terminal region of human NVL tagged with thioredoxin; source: E. coli BL21 star (DE3), purified (Ni-NTA, SEC); not shown: 6xHis-Trx, N-terminal, kept
B4: MBP-ZCCHC8^91–211-(GS)3-eYFP (domain or fragment, human, UniProt Q6NZY4 91-211, looked up)
chain: DGPILQILFMNNAISKQYHQEIEEFVSNLVKRFEEQQKNDVEKTSFNLLPQPSSIVLEEDHKVEESCAIKNNKEAFSVVGSVLYFTNFCLDKLGQPLLNENPQLSEGWEIPKYHQVFSHIV
notes: also called ZCCHC8-YFP fusion protein; source: E. coli BL21 star (DE3), purified (Ni-NTA, SEC); not shown: 6xHis-MBP, N-terminal, kept; (GS)3-eYFP, C-terminal, kept
B5: MBP-ZCCHC8^91–211 (domain or fragment, human, UniProt Q6NZY4 91-211, looked up)
chain: B4 chain
notes: source: E. coli BL21 star (DE3), purified (Ni-NTA, SEC); not shown: 6xHis-MBP, N-terminal, kept
B6: MBP-ZCCHC8^91–211 W198A/K202E (domain or fragment, human, UniProt Q6NZY4 91-211, looked up)
chain: B4 chain with W108A, K112E
notes: also called W198A/K202E mutant; source: E. coli BL21 star (DE3), purified (Ni-NTA, SEC); not shown: 6xHis-MBP, N-terminal, kept
B7: MBP-ZCCHC8^91–211 F178A/D181R (domain or fragment, human, UniProt Q6NZY4 91-211, looked up)
chain: B4 chain with F88A, D91R
notes: also called F178A/D181R mutant; source: E. coli BL21 star (DE3), purified (Ni-NTA, SEC); not shown: 6xHis-MBP, N-terminal, kept
B8: GST-MTR4-KOW (domain or fragment, human, UniProt P42285 645-787, looked up)
chain: T2 sequence (looked up)
notes: human MTR4 KOW domain, residues 645–787; also called GST-tagged MTR4 KOW; source: E. coli BL21 star (DE3), purified (Ni-NTA, heparin, SEC); not shown: 6xHis-GST, N-terminal, kept

Legend:
Conditions in all cases: both partners purified
GST-MTR4-∆N [1] = biological target: T1, GST-MTR4-∆N; test: pull-down; GST-tagged MTR4 constructs as bait, Trx-NVL constructs as prey, glutathione sepharose; 10 μM GST-MTR4∆N with 20 μM Trx-NVL constructs; 50 mM Hepes pH 7.5, 150 mM NaCl, 5% glycerol, 0.05% NP40, 1 mM DTT, 30 min at 4 °C; SDS-PAGE, Coomassie
MTR4-KOW = biological target: T2, MTR4-KOW; test: MST; 1 μM MBP-ZCCHC8^91–211-(GS)3-eYFP with a 1:1 dilution series of unlabeled MTR4-KOW; 50 mM Hepes/NaOH pH 7.5, 150 mM NaCl, 5% glycerol, 0.5 mM TCEP; MST power 70%, LED power 15%; triplicates
GST-MTR4∆N R743E = biological target: T3, GST-MTR4∆N R743E; test: pull-down; GST-tagged MTR4 constructs as bait, MBP-ZCCHC8 constructs as prey, glutathione sepharose; 2 μM GST-MTR4∆N with 8 μM MBP-ZCCHC8 constructs; 50 mM Hepes pH 7.5, 150 mM NaCl, 5% glycerol, 0.05% NP40, 1 mM DTT, 30 min at 4 °C; SDS-PAGE, Coomassie
GST-MTR4-∆N [2] = biological target: T1, GST-MTR4-∆N; test: as above
Trx-NVL^1–266 = biological target: B3; test: pull-down; GST-tagged MTR4 constructs as bait, Trx-NVL constructs as prey, glutathione sepharose; 10 μM GST-MTR4∆N with 20 μM Trx-NVL constructs; 50 mM Hepes pH 7.5, 150 mM NaCl, 5% glycerol, 0.05% NP40, 1 mM DTT, 30 min at 4 °C; SDS-PAGE, Coomassie

Binder: B1
- binding result (GST-MTR4-∆N [1]): binds

Binder: B2
- binding result (GST-MTR4-∆N [1]): binds

Binder: B3
- binding result (GST-MTR4-∆N [1]): binds

Binder: B4
- Kd (MTR4-KOW): ~300 nM

Binder: B5
- binding result (GST-MTR4∆N R743E): binds

Binder: B6
- binding result (GST-MTR4-∆N [2]): binds

Binder: B7
- binding result (GST-MTR4-∆N [2]): binds

Binder: B8
- binding result (Trx-NVL^1–266): binds
